B1: Rv0081 transcription factor of Mycobacterium tuberculosis (natural protein)
chain: MESEPLYKLKAEFFKTLAHPARIRILELLVERDRSVGELLSSDVGLESSNLSQQLGVLRRAGVVAARRDGNAMIYSIAAPDIAELLAVARKVLARVLSDRVAVLEDLRAGGSAT

Experiments:
[1] = molecular target: T1, Rv0081-S/Q-A S48A;S49A;S52A;Q53A (Mycobacterium tuberculosis) (UniProt P9WMI7); assay: SPR
T1 sequence: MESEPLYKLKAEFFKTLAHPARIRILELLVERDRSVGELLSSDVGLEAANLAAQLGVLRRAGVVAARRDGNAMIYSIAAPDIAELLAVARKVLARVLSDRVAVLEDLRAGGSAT

[2] = molecular target: the molecule itself; assay: SEC-MALS

Row | Molecule | Kd [1] | stoichiometry N [2]
1 | ATCCGCACTATCTGATAAATTCTTCAACTCGTC (double strand) [ds-Wt] | 19.6 µM | –
2 | B1 | – | 2

— doi:10.1101/465575 (bioRxiv, 2018)
